From paper PMC6423188, “HYNIC and DOMA conjugated radiolabeled bombesin analogs as receptor-targeted probes for scintigraphic detection of breast tumor” (EJNMMI Research, 2019)
Where a SMILES comes first, the peptide text is derived from it.

Experiments:
GRPR = biological target: T1, GRPR (Homo sapiens, UniProt P30550); test: In vitro receptor binding assay, competition with 99mTc-BNS; conditions: unlabeled analogs, radioligand 99mTc-BNS
T1 construct: endogenous in cells; host or cells: MDA-MB-231 human breast cancer cells (from NCCS, Pune)
Experimental: One day prior to the assay, cells at the confluence were placed in 12-well plates. […] Inhibitory assays were done on GRPR-expressing MDA-MB-231 human breast cancer cells using the standard procedure with modifications. […] After 1-h incubation, cells were washed twice with cold PBS. Receptor bound radioactivity was recovered by solubilizing the cells with 400 μL 1 N NaOH at 37 °C. Binding activities were evaluated in the gamma counter. IC50 (the best-fit 50% inhibitory concentration) values were determined using nonlinear regression.
It may be mentioned that non-radioactive Re complex can be used in place of its unlabeled ligand to determine the binding affinity after complexation reaction. This is being proposed to use the non-radioactive Re complex in place of its unlabeled ligand to determine the binding affinity after complexation in future studies.

MDA-MB-231 cells = test: Western blot analysis; type: cell-based, human; conditions: 24 h, BN3, BN4 7.5 and 5 pM, BNS 7.5 pM
Description: After washing in ice-cold PBS, proteins were extracted from cells with lysis buffer containing 100 mmol/L Tris-HCl, pH 8.0, 150 mmol/L NaCl, 1% sodium dodecyl sulfate, 10% glycerol, 1% Triton X, 5 mmol/L ethylenediaminetetraacetic acid, 1 mmol/L phenyl methyl sulfonyl fluoride, 10 mmol/L sodium fluoride, 1 mmol/L sodium orthovanadate, 1 mmol/L-glycerophosphate, and protease inhibitor cocktail tablets (Roche, Switzerland). Total proteins from cell were also extracted by using standard procedure. Protein concentrations were determined by Bradford reagent (BioRad, USA). Extracted proteins were separated by sodium dodecyl sulphate polyacrylamide gel electrophoresis and transferred to polyvinylidene fluoride (PVDF) membranes. Membranes blocking were done by 5% nonfat milk in Tris-buffered saline containing 0.1% polysorbate-20 and incubated with primary antibodies GRPR (Abcam, USA), VEGF, PCNA, Phospho-p38, and HIF-1α (Santa Cruz Biotechnology) for overnight at 4 °C. β-actin antibodies (Millipore) were used to confirm equal protein loading. Detection of primary antibodies was done by alkaline phosphatase conjugated secondary antibodies (1:5000 dilutions) and the detection was done by colorimetry using NBT-BCIP as substrate (Sigma-Aldrich). Detection of GRPR primary antibody was done by horseradish peroxidase conjugated secondary antibodies. The level of β-actin was used as a loading control and was not altered under any of the condition used.

in vitro = in vitro ADME; conditions: rat
Experimental: An aliquot (100 μL) of ^99mTc-BN1/^99mTc-BN2/^99mTc-BN3/^99mTc-BN4/^99mTc-BNS was added to 1 mL of freshly collected rat serum in centrifuge tube. The mixture was then incubated at 37 °C for 1 h; the serum protein was precipitated by adding 1 mL trichloroacetic acid (10%, V/V). The supernatant and precipitate were separated by centrifugation at 3000 rpm for 5 min. Radioactivities of both the phases were measured separately. The above experimental procedure was repeated three times. The percentage of protein binding was determined as: Plasma protein binding % = (precipitate counts (CPM) / [precipitate counts (CPM) + plasma counts (CPM)]) × 100%.

physchem = type: physicochemical; conditions: pH 7.4
Experimental: Lipophilicity of the HPLC-purified radiopeptide analogs was determined through octanol/water partition coefficients, determined at pH 7.4 by measuring the distribution of the HPLC purified radiolabeled peptides in 1-octanol and PBS. Then, 50 μL HPLC purified ^99mTc-BN1/^99mTc-BN2/^99mTc-BN3/^99mTc-BN4/^99mTc-BNS with 100 μCi of radiolabeled compound in PBS was added to a to a centrifuge tube containing 1 mL n-octanol and 1 mL PBS (0.025 M, pH 7.4). The tube was vortexed at room temperature for 2 min and they are centrifuged at 5000 rpm for 5 min to ensure complete separation of layers. Further, 100 μL of each phase was transferred into a separate pre-weighed vial and measured in the well γ-counter. The ratio of octanol layer counts to aqueous layer counts was expressed as the distribution coefficient (D, the appropriate descriptor for ionizable compounds) and logD was used for determination of lipophilicity. Counts per unit weight of the sample were calculated, and logD value as calculated as follows:
log10D = log10 [(cpm in octanol – cpm in background) / (cpm in buffer – cpm in background)]

[1] = system: MDA-MB-231 tumor-bearing mice; test: In vivo biodistribution; set-up: species or system mouse; conditions: mean ± SD, n = 3; for Tumor uptake: MDA-MB-231 tumor
Experimental: All animal experiments were done according to the CSIR-IICB Animal Ethics Committee’s rules and regulation. Forty-eight hours before tumor cell implantation, an immunosuppressive drug (cyclosporine-A) was given intraperitoneal (i.p) at a concentration of 30 mg/kg/day. After that, MDA-MB-231 cells (5 × 10^6) 0.2 mL were implanted subcutaneously into the left flanks of the hind leg of BALB/c mice. Thereafter, the same dose of cyclosporine was given i.p. daily up to 2 weeks. Two weeks after inoculation of the tumor cells, when tumors reached ~ 0.5 cm in mean diameter, the tumor-bearing mice were used for biodistribution and imaging studies. Animals were monitored daily and their weights were recorded. Control group of mice received only 0.9 wt% saline. After cell implantation, the growth rate of the breast tumor followed a satisfactory pattern of spheroid shape and tumors are palpable within 2 to 4 weeks. MDA-MB-231 cell implanted mice tumor models were used for biodistribution and planar imaging studies of these radiolabeled new bombesin analogs.
In tissue biodistribution studies, tumor-bearing animals were divided into four groups and well hydrated for 1 h by intraperitoneal administration of saline (0.9%, 2 mL). Three animals per groups were used for biodistribution studies. After that, the radiolabeled new bombesin analogs (^99mTc-BN) were injected intravenously in each animal of each group consequently through the tail vein [24–27]. After 5, 30, 60, and 120 min intravenous administrations of radiolabeled analogs, the animals were sacrificed; blood, heart, lung, liver, kidney, stomach, intestine, spleen, pancreas, brain, muscle, and tumor were excised, weighed, and counted for radioactivity. The organ uptake was calculated as a percentage of the injected activity per gram of wet tissue (%IA/g). In order to evaluate whether binding of bombesin analogs to MDA-MB-231 cells in vivo is specific; blocking studies with ^99mTc-labeled bombesin analogs in tumor-bearing mice were carried out. Groups of three animals were injected 0.03 nmol of ^99mTc-labeled BN analogs (2 MBq) with 25 nmol of non-radiolabeled BN peptide. After 60 min and 120 min, mice were sacrificed and the organs were collected. Each organ was weighed and counted in a gamma counter along with activity standard and percentage of injected activity per gram (%IA/g) of tissue was calculated for each type of tissues. Counts were corrected for background radiation and physical decay of the radioactivity. The uptake was expressed in the percentage of injected activity per gram of each organ (%IA/g). Data were analyzed statistically by the t test, with the level of significance set at P < 0.05.

[2] = GRP receptor expressing MDA-MB-231 cells, values printed in Fig. 4
[3] = 60 min p.i., blocked with excess non-radiolabeled BN peptide

T1 sequence (P30550 whole entry): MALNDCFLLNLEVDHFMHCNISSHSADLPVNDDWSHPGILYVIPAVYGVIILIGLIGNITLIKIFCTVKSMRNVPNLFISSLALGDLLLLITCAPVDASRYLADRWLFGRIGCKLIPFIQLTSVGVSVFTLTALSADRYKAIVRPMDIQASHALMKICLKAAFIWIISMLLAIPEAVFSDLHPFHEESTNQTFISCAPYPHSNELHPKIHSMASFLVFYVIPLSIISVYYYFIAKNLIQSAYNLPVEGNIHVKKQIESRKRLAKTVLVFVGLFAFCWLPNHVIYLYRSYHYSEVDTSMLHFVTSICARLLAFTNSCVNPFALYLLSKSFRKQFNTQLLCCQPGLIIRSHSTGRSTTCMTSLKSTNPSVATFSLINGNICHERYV

CCCC[C@H](NC(=O)[C@@H](Cc1ccccc1)NC(=O)[C@H](Cc1c[nH]cn1)NC(=O)CNC(=O)[C@@H](NC(=O)[C@H](C)NC(=O)[C@H](Cc1c[nH]c2ccccc12)NC(=O)[C@H](CCC(N)=O)NC(=O)[C@H](CC(=O)O)NC(=O)c1ccc(NN)nc1)C(C)C)C(N)=O [BN1, HYNIC-Asp-[D-Phe^13Nle^14]BN(7-14)NH2] (HELM PEPTIDE1{[NNc1ccc(C(=O)[*:2])cn1].D.Q.W.A.V.G.H.[dF].[Nle].[am]}$$$$V2.0)
IC50 (GRPR; [2]): 4.47 nM
IC50 (GRPR; MDA-MB-231 cells/membranes, 1 h, 37 °C): 3.96 nM

CSCC[C@H](NC(=O)[C@@H](Cc1ccc(O)cc1)NC(=O)[C@H](Cc1c[nH]cn1)NC(=O)CNC(=O)[C@@H](NC(=O)[C@H](C)NC(=O)[C@H](Cc1c[nH]c2ccccc12)NC(=O)[C@H](CCC(N)=O)NC(=O)[C@H](CC(=O)O)NC(=O)[C@@H]1CCCN1C(=O)c1ccc(NN)nc1)C(C)C)C(N)=O [BN2, HYNIC-Pro-Asp-[D-Tyr^13Met^14] BN(7-14)NH2] (HELM PEPTIDE1{[NNc1ccc(C(=O)[*:2])cn1].P.D.Q.W.A.V.G.H.[dY].M.[am]}$$$$V2.0)
IC50 (GRPR; [2]): 4.63 nM

CCCC[C@H](NC(=O)[C@@H](CC1CCCCC1)NC(=O)[C@H](Cc1c[nH]cn1)NC(=O)[C@H](CCCCN)NC(=O)[C@@H](NC(=O)[C@H](C)NC(=O)[C@H](Cc1c[nH]c2ccccc12)NC(=O)[C@H](CCC(N)=O)NC(=O)[C@H](CC(N)=O)NC(=O)[C@H](CC(=O)O)NC(=O)c1ccc(NN)nc1)C(C)C)C(N)=O [BN3, HYNIC-Asp-Asn-[Lys^5-D-CHAla^13Nle^14]BN(7-14)-NH2] (HELM PEPTIDE1{[NNc1ccc(C(=O)[*:2])cn1].D.N.Q.W.A.V.K.H.[O=C([C@@H](CC1CCCCC1)N[*:1])[*:2]].[Nle].[am]}$$$$V2.0)
level of GRPR (Western blot) (MDA-MB-231 cells): significantly increased level of GRPR

CSCC[C@H](NC(=O)[C@H](CC(C)C)NC(=O)[C@H](Cc1c[nH]cn1)NC(=O)CNC(=O)[C@@H](NC(=O)[C@H](C)NC(=O)[C@H](Cc1c[nH]c2ccccc12)NC(=O)[C@@H](N)CCC(N)=O)C(C)C)C(N)=O [BNS, reference compound]
level of GRPR (Western blot) (MDA-MB-231 cells): significantly increased level of GRPR

^99mTc-HYNIC-Pro-Asp-[Tyr^13Met^14]BN(7-14)NH2 [99mTc-BN2]
Percentage of plasma protein binding (in vitro): 41.23%
logD (physchem): − 1.78 ± 0.04
Tumor uptake ([1]; 5 min p.i., i.v.): 0.79 ± 0.12 %IA/g
Blood uptake ([1]; 5 min p.i., i.v.): 1.03 ± 0.05 %IA/g
Heart uptake ([1]; 5 min p.i., i.v.): 0.59 ± 0.02 %IA/g
Intestine uptake ([1]; 5 min p.i., i.v.): 0.73 ± 0.03 %IA/g
Kidney uptake ([1]; 5 min p.i., i.v.): 2.05 ± 0.10 %IA/g
Liver uptake ([1]; 5 min p.i., i.v.): 1.47 ± 0.07 %IA/g
Lung uptake ([1]; 5 min p.i., i.v.): 0.91 ± 0.04 %IA/g
Muscle uptake ([1]; 5 min p.i., i.v.): 0.24 ± 0.01 %IA/g
Pancreas uptake ([1]; 5 min p.i., i.v.): 0.95 ± 0.01 %IA/g
Spleen uptake ([1]; 5 min p.i., i.v.): 0.95 ± 0.04 %IA/g
Stomach uptake ([1]; 5 min p.i., i.v.): 0.74 ± 0.03 %IA/g
Urine + urinary bladder uptake ([1]; 5 min p.i., i.v.): 0.56 ± 0.02 %IA/g
Tumor uptake ([1]; 30 min p.i., i.v.): 1.85 ± 0.05 %IA/g
Blood uptake ([1]; 30 min p.i., i.v.): 0.78 ± 0.03 %IA/g
Heart uptake ([1]; 30 min p.i., i.v.): 0.46 ± 0.01 %IA/g
Intestine uptake ([1]; 30 min p.i., i.v.): 1.05 ± 0.05 %IA/g
Kidney uptake ([1]; 30 min p.i., i.v.): 4.76 ± 0.20 %IA/g
Liver uptake ([1]; 30 min p.i., i.v.): 1.23 ± 0.06 %IA/g
Lung uptake ([1]; 30 min p.i., i.v.): 0.89 ± 0.11 %IA/g
Muscle uptake ([1]; 30 min p.i., i.v.): 0.20 ± 0.02 %IA/g
Pancreas uptake ([1]; 30 min p.i., i.v.): 2.07 ± 0.10 %IA/g
Spleen uptake ([1]; 30 min p.i., i.v.): 0.75 ± 0.03 %IA/g
Stomach uptake ([1]; 30 min p.i., i.v.): 1.01 ± 0.05 %IA/g
Urine + urinary bladder uptake ([1]; 30 min p.i., i.v.): 1.92 ± 0.07 %IA/g
Tumor uptake [1, 3]: 0.78 ± 0.03 %IA/g
Blood uptake [1, 3]: 0.38 ± 0.01 %IA/g
Heart uptake [1, 3]: 0.27 ± 0.02 %IA/g
Intestine uptake [1, 3]: 1.25 ± 0.02 %IA/g
Kidney uptake [1, 3]: 3.37 ± 0.10 %IA/g
Liver uptake [1, 3]: 1.09 ± 0.04 %IA/g
Lung uptake [1, 3]: 0.73 ± 0.04 %IA/g
Muscle uptake [1, 3]: 0.20 ± 0.02 %IA/g
Pancreas uptake [1, 3]: 0.85 ± 0.02 %IA/g
Spleen uptake [1, 3]: 0.45 ± 0.03 %IA/g
Stomach uptake [1, 3]: 0.70 ± 0.02 %IA/g
Urine + urinary bladder uptake [1, 3]: 4.50 ± 0.08 %IA/g
Tumor uptake ([1]; 60 min p.i., i.v.): 0.98 ± 0.04 %IA/g
Blood uptake ([1]; 60 min p.i., i.v.): 0.35 ± 0.01 %IA/g
Heart uptake ([1]; 60 min p.i., i.v.): 0.23 ± 0.12 %IA/g
Intestine uptake ([1]; 60 min p.i., i.v.): 1.46 ± 0.02 %IA/g
Kidney uptake ([1]; 60 min p.i., i.v.): 3.34 ± 0.16 %IA/g
Liver uptake ([1]; 60 min p.i., i.v.): 1.01 ± 0.05 %IA/g
Lung uptake ([1]; 60 min p.i., i.v.): 0.78 ± 0.03 %IA/g
Muscle uptake ([1]; 60 min p.i., i.v.): 0.18 ± 0.03 %IA/g
Pancreas uptake ([1]; 60 min p.i., i.v.): 1.08 ± 0.05 %IA/g
Spleen uptake ([1]; 60 min p.i., i.v.): 0.48 ± 0.02 %IA/g
Stomach uptake ([1]; 60 min p.i., i.v.): 0.82 ± 0.04 %IA/g
Urine + urinary bladder uptake ([1]; 60 min p.i., i.v.): 4.54 ± 0.22 %IA/g
Tumor uptake ([1]; 120 min p.i., i.v.): 0.54 ± 0.02 %IA/g
Blood uptake ([1]; 120 min p.i., i.v.): 0.07 ± 0.01 %IA/g
Heart uptake ([1]; 120 min p.i., i.v.): 0.12 ± 0.01 %IA/g
Intestine uptake ([1]; 120 min p.i., i.v.): 0.18 ± 0.01 %IA/g
Kidney uptake ([1]; 120 min p.i., i.v.): 2.45 ± 0.12 %IA/g
Liver uptake ([1]; 120 min p.i., i.v.): 0.53 ± 0.02 %IA/g
Lung uptake ([1]; 120 min p.i., i.v.): 0.42 ± 0.02 %IA/g
Muscle uptake ([1]; 120 min p.i., i.v.): 0.12 ± 0.04 %IA/g
Pancreas uptake ([1]; 120 min p.i., i.v.): 0.89 ± 0.04 %IA/g
Spleen uptake ([1]; 120 min p.i., i.v.): 0.24 ± 0.11 %IA/g
Stomach uptake ([1]; 120 min p.i., i.v.): 0.41 ± 0.02 %IA/g
Urine + urinary bladder uptake ([1]; 120 min p.i., i.v.): 5.55 ± 0.03 %IA/g
